Data from PMC12963305.

Biological target: EmER1, EGF receptor of Echinococcus multilocularis, extracellular region in the MALAR-Y2H receptor vector (Echinococcus multilocularis)

Q: How did the germinal vesicle breakdown (GVBD) of Xenopus oocytes expressing EmER1 from cRNA, stimulated by 50 nM recombinant human EGF, counted after 15 h turn out when “human EGF, extracellular domain in the MALAR-Y2H ligand vector (from UniProt P01133 23-1032)” was run?
A: 30%
